Experiment [1] concerns the target T1, rat Fas ligand (encoded by clone pTN24-15) (rat, UniProt P36940 1-278).
T1 construct: Full-length type II membrane protein of 278 residues; It stood on d10S cells and on COS-7 cells transfected with pTN24-15; It was also used as NP-40 lysate of these cells (immunoprecipitation) and as protein purified from the d10S-12 membrane fraction (about 40 kD); also called Fas ligand on the d10S cells; COS/pTN24-15
T1 sequence: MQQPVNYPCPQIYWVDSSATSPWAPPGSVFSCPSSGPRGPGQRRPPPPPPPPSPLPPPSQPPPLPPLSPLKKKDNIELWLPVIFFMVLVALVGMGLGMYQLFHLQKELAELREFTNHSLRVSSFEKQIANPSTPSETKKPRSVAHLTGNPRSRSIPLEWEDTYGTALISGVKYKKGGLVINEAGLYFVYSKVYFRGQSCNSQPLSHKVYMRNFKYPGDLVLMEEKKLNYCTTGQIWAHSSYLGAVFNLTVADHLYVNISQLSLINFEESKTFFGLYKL
As to the kind of experiment: flow cytometry on d10S cells, phycoerythrin-labeled streptoavidin. How it is done:
PC60-d10S cells (to be referred to as "d10S" hereinafter; Rouvier E. et al., J. Exp. Med., vol. 177, pp. 195–200, 1993) were washed with a staining solution (phosphate-buffered saline (to be referred to as "PBS" hereinafter) containing 2% FCS and 0.02% NaN₃). About 1 ×10^6 of the cells were suspended in 50 μl of the staining solution supplemented with 5 μg/ml of rat anti-mouse FcγRII blocking antibody (Pharmingen). This suspension was dispensed into wells of a 96 well plate and incubated for 10 minutes on an ice bath. A 20 μg/ml solution of the biotinylated mFas-Fc was dispensed into wells of the resulting plate in 50 μl portions, and the incubation was continued for additional 30 minutes on an ice bath. […]
After washing the cells with the staining solution, cytometric analysis was carried out using FACScan (Becton Dickinson). As the result, a slight shift in the fluorescence intensity was observed which confirmed that said cells were stained with the biotinylated mFas-Fc (see FIG. 1(A). Control was expressed as an open area, and staining before 4 hours of treatment with PMA and ionomycin as a stippled area and staining after 4 hours of treatment with PMA and ionomycin as a closed area.
(In general: In flow cytometry, cells or beads pass a laser one at a time.)

Experiment [2] concerns the target T2, human Fas antigen on WC8A / WC8 cells (human, UniProt P25445 26-335).
T2 construct: whole, on cells
T2 sequence (looked up): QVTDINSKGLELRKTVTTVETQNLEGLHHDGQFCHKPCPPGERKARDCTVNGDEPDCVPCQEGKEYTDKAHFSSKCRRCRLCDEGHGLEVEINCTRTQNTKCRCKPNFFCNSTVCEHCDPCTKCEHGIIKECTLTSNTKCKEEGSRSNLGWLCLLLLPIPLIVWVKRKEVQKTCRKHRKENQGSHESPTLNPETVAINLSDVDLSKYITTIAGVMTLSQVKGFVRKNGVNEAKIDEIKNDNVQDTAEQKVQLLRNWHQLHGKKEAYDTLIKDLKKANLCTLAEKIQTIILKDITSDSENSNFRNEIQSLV
Briefly: concluded from cytotoxicity of the culture supernatant on cells expressing human Fas antigen.

Experiment [3] addresses T2, human Fas antigen on WC8A / WC8 cells. Briefly: concluded from cytotoxicity on WC8A cells and its inhibition by hFas-Fc and mFas-Fc. How it is done: Cytotoxic activity of recombinant cells was measured in the same manner as described in Inventive Example 8, using the COS-7 cells transformed in the above step (2) as the effector cells and 10^6 cells of WR19L or WC8A as the target cells. The WC8A is a transformant which acquired human Fas antigen-expressing ability through the transformation of mouse WR19L cells (Itoh N. et al., *J. Immunol.*, vol. 151, pp. 621–627, 1993).
The thus ^51Cr-labeled cells (1 ×10^4) were mixed with COS/pEX-hFL1 cells at various mixing ratios and cultured at 37° C. for 4 hours, subsequently measuring cytotoxic activity using released ^51Cr as an index.

Experiment [4] has as its target T3, mouse Fas antigen on W4 cells (mouse, UniProt P25446 22-327).
T3 construct: whole, on cells; also called Fas antigen-expressing W4 cells
T3 sequence (looked up): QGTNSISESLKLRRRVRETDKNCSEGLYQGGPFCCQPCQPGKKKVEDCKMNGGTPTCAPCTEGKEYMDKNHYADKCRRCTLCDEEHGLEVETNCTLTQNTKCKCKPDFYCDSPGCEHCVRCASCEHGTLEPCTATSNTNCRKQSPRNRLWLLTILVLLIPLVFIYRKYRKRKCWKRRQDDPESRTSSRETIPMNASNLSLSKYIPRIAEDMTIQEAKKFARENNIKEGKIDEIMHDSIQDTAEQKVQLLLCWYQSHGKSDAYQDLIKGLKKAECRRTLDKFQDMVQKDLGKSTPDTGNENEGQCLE
Briefly: concluded from cytotoxicity on W4 cells and its inhibition by mFas-Fc. How it is done:
Cytotoxic activity of recombinant cells was measured in the same manner as described in Inventive Example 8, using the transformed COS cells (COS/pEF-MFLW4F) obtained in the above step (2) as the effector cells and 10^6 cells-of WR19L or W4 as the target cells. The W4 is a transformant which acquired mouse Fas antigen-expressing ability through the transformation of mouse WR19L cells. That is, 10^6 cells of WR19L or W4 were labeled with ^51Cr by culturing the cells at 37° C. for 2 hours in RPMI 1640 medium containing 20 μCi of (^51Cr) sodium chromate (Amersham).
The thus ^51Cr-labeled cells (1×10^4) were mixed with COS/pEF-MFLW4F cells at various mixing ratios and cultured at 37° C. for 4 hours, subsequently measuring cytotoxic activity using released ^51Cr as an index. […] In addition, the cytotoxicity of COS/pEF-MFLW4F cells was inhibited by the addition of 20 μg/ml of the chimera protein containing the extracellular domain of mouse Fas antigen (mFas-Fc) prepared in Inventive Example 1, but was not inhibited by the addition of the soluble type human TNF receptor (hTNFRβ-Fc).

B1: chimera protein of TNF receptor beta and Fc region of human IgG1 (Fc fusion, UniProt P19438 30-211, looked up)
chain: LVPHLGDREKRDSVCPQGKYIHPQNNSICCTKCHKGTYLYNDCPGPGQDTDCRECESGSFTASENHLRHCLSCSKCRKEMGQVEISSCTVDRDTVCGCRKNQYRHYWSENLFQCFNCSLCLNGTVHLSCQEKQNTVCTCHAGFFLRENECVSCSNCKKSLECTKLCLPQIENVKGTEDSGTT
modifications: biotinylated with NHS-LC-biotin in the flow cytometry; unlabelled in the cytotoxicity assays
notes: extracellular domain; Control fusion protein; also called hTNFRβ-Fc; soluble type human TNF receptor; not shown: human IgG1 Fc region (hinge, CH2, CH3, as in pFas-FcII)
B1: the binding result in experiment [1] is given as “no binding”.

B2: extracellular domain of the human Fas ligand secreted by transformant COS-1/pM1070 (ligand)
chain: QLFHLQKELAELRESTSQMHTASSLEKQIGHPSPPPEKKELRKVAHLTGKSNSRSMPLEWEDTYGIVLLSGVKYKKGGLVINETGLYFVYSKVYFRGQSCNNLPLSHKVYMRNSKYPQDLVMMEGKMMSYCTTGQMWARSSYLGAVFNLTSADHLYVNVSELSLVNFEESQTFFGLYKL
notes: Expressed behind the signal peptide of the human Fas antigen, which is not counted here; Tested as culture supernatant; also called culture supernatant of COS-1/pM1070
Turning to B2, in experiment [2], the binding result is “binds”.

B3: chimera protein of the extracellular domain of mouse Fas (mFas) antigen and the Fc region of human IgG1 (hIgG1) (Fc fusion, UniProt P25446 22-169, looked up)
chain: QGTNSISESLKLRRRVRETDKNCSEGLYQGGPFCCQPCQPGKKKVEDCKMNGGTPTCAPCTEGKEYMDKNHYADKCRRCTLCDEEHGLEVETNCTLTQNTKCKCKPDFYCDSPGCEHCVRCASCEHGTLEPCTATSNTNCRKQSPRNR
modifications: biotinylated with NHS-LC-biotin in the flow cytometry; unlabelled in the other assays
notes: extracellular domain; Made from plasmid pFas-FcII in COS-7 or BTS-1 cells; also called mFas-Fc; biotinylated mFas-Fc; not shown: human IgG1 heavy chain constant region: hinge, CH2 and CH3 domains
Take B3: the binding result in experiment [1] is on record as “binds”.

B4: human Fas ligand (encoded by pEX-hFL1) (ligand)
chain: MQQPFNYPYPQIYWVDSSASSPWAPPGTVLPCPTSVPRRPGQRRPPPPPPPPPLPPPPPPPPLPPLPLPPLKKRGNHSTGLCLLVMFFMVLVALVGLGLGMFQLFHLQKELAELRESTSQMHTASSLEKQIGHPSPPPEKKELRKVAHLTGKSNSRSMPLEWEDTYGIVLLSGVKYKKGGLVINETGLYFVYSKVYFRGQSCNNLPLSHKVYMRNSKYPQDLVMMEGKMMSYCTTGQMWARSSYLGAVFNLTSADHLYVNVSELSLVNFEESQTFFGLYKL
notes: Full-length protein on COS-7 cells (COS/pEX-hFL1) or FDC-P1 cells (FLh1); In the western blots it stood as reduced SDS extract of the transfected COS cells; also called COS/pEX-hFL1; human Fas ligand-expressing COS cells
B4: the binding result in experiment [3] is recorded as “binds”.

B5: mouse Fas ligand (encoded by pEF-MFLW4) (ligand)
chain: MQQPMNYPCPQIFWVDSSATSSWAPPGSVFPCPSCGPRGPDQRRPPPPPPPVSPLPPPSQPLPLPPLTPLKKKDHNTNLWLPVVFFMVLVALVGMGLGMYQLFHLQKELAELREFTNQSLKVSSFEKQIANPSTPSEKKEPRSVAHLTGNPHSRSIPLEWEDTYGTALISGVKYKKGGLVINETGLYFVYSKVYFRGQSCNNQPLNHKVYMRNSKYPEDLVLMEEKRLNYCTTGQIWAHSSYLGAVFNLTSADHLYVNISQLSLINFEESKTFFGLYKL
notes: Full-length protein of 279 residues on transfected COS cells; In the western blots it stood as reduced SDS extract of these cells; also called COS/pEF-MFLW4F
For the molecule B5, the binding result in experiment [4] is “binds”.

For the origin of these results see patent publication US6897295 (MOCHIDA PHARMACEUTICAL, dated 2005).
